Holding throughout (assay): SPR, Langmuir fit
In general terms: SPR reads the build-up and loss of mass on a sensor chip optically.

Experiment [1] concerns the target T1, cynomolgus SIRP-α D1 domain (cyno1) (cynomolgus monkey, UniProt Q5TFQ8 30-148 (human entry), limits assumed).
T1 chain: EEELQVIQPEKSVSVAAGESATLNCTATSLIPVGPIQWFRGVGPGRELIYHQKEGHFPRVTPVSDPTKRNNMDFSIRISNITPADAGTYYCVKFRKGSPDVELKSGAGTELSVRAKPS
A digest of the protocol:
(§1)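 scFv-Fc antibody clones were captured from pre-filtered culture media onto anti-human IgG Fc, amine-coupled at about 4000 RU on a GLC chip in a ProteOn XPR36 instrument. SIRP analytes were passed over in PBS pH 7.4 with 0.01% Tween-20 at 25° C, and responses were double-referenced against interspot and buffer-blank signals. Curves were fitted to a 1:1 Langmuir model. Dissociation rate constants (koff) were taken from those fits.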

Experiment [2] concerns the target T2, human SIRP-α v1 D1 domain (human, UniProt P78324 31-149).
T2 construct: also called human v1
A digest of the protocol:
as §1

The target in experiment [3] is T3, human SIRPβ isoform 1 (human, UniProt O00241 30-148).
T3 construct: also called SIRPb; sirpb1
T3 sequence (O00241 30-148 limits assumed): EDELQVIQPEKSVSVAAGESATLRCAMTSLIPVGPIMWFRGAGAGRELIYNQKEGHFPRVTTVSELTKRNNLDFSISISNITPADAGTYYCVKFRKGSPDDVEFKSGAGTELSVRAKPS
A digest of the protocol: as §1

The target of experiment [4] is T4, human SIRPγ isoform 1 (human, UniProt Q9P1W8 29-147).
T4 construct: also called SIRPg; sirpg
T4 sequence (Q9P1W8 29-147 limits assumed): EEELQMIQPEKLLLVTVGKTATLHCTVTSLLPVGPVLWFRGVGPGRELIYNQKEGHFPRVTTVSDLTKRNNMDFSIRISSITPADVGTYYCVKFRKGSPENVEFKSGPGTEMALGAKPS
The method, boiled down:
as §1

The target of experiment [5] is T5, high affinity SIRP-α D1 variant CV1-3.
T5 chain: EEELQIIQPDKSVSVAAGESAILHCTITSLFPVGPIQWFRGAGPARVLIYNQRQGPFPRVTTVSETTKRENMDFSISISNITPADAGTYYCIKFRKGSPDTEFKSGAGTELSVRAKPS
The method, boiled down: as §1

The target in experiment [6] is T6, mouse 129 SIRP-α D1 domain (mouse (129 strain), UniProt P97797 32-150).
T6 construct: also called m129
T6 chain: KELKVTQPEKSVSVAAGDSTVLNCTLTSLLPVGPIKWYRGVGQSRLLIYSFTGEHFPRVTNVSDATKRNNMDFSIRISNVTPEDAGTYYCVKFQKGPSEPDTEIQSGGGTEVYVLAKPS
The method, boiled down: as §1

The target of experiment [7] is T7, human SIRP-α v2 D1 domain (human).
T7 construct: also called human v2
T7 sequence (chain, as listed by the source limits assumed): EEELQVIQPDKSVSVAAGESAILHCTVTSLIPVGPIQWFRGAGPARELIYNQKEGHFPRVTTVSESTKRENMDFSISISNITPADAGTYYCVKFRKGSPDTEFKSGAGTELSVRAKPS
The method, boiled down: as §1

The target in experiment [8] is T8, NOD mouse SIRP-α D1 domain (mouse (NOD strain)).
T8 chain: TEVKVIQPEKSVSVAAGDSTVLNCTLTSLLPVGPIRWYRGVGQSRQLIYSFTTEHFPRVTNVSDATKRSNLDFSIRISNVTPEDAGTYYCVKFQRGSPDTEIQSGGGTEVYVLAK
The method, boiled down:
as §1

In experiment [9] the target is T9, C57BL/6 mouse SIRP-α D1 domain (mouse (C57BL/6 strain), UniProt P97797 32-148).
T9 sequence: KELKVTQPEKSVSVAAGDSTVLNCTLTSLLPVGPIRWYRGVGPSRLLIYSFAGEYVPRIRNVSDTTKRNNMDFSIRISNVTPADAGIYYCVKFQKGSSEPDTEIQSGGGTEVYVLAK
The method, boiled down: as §1

The target in experiment [10] is T10, cynomolgus SIRP-α D1 domain (cyno2) (cynomolgus monkey, UniProt Q5TFQ8 30-148 (human entry), limits assumed).
T10 chain: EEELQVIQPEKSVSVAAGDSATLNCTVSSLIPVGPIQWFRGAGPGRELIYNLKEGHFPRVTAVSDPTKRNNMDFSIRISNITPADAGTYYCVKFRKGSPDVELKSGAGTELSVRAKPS
The method, boiled down:
as §1

T2 sequence (P78324 31-149 limits assumed): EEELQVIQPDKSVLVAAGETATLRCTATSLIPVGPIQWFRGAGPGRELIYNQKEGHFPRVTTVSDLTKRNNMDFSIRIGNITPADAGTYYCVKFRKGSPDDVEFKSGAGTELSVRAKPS

B1: S56 (scFv, V domains shown)
VH: DVQLVESGGGVVRPGESLRLSCAASGFTFSSYAMSWVRQAPGKGLEWLAGISAGGSDTYYIDSVKGRFTISRDNSKNSLYLQVNSLTAEDTAVYYCARETWNHLFDYWGLGTLVTVSS
VL: ALTQPASVSANPGETVKITCSGGGYYSTYYGWYQQKSPGSAPVTVIHSDDKRPSDIPSRFSGSASGSAATLTITGVRVEDEAVYYCAGYDGRTYINTFGAGTTLTVL
notes: also called clone 56
As to B1, the koff in experiment [1] is 0.000295 s⁻¹; in experiment [2], 0.000228 s⁻¹; in experiment [3], 0.000362 s⁻¹; in experiment [4], 0.000215 s⁻¹; in experiment [5] it was 0.000203 s⁻¹; in experiment [6], 0.000406 s⁻¹. Further, the koff in experiment [7] was 0.000286 s⁻¹; in [8], 0.00106 s⁻¹; in experiment [9], 0.00429 s⁻¹; in [10], 0.00028 s⁻¹.

B2: S24 (scFv, V domains shown)
VH: DVQLVESGGGVVRPGESLRLSCAASGFTFSSNAMSWVRQAPGKGLEWLAGISAGGSDTYYPASVKGRFTISRDNPKNTLYLQMNTLTAEDTAVYYCARETWNHLFDYWGLGTLVTVSS
VL: ALTQPASVSANPGETVKIACSGGSYYSYYYGWYQQKSPGSALVTVIYSDDKRPSGIPSRFSGSASGSTATLTITGVRAEDEAVYYCGGYDYSSYTNDFGAGTTLTVL
notes: also called clone 24
Regarding B2, the koff in experiment [1] came to 0.000382 s⁻¹; in experiment [2], 0.000257 s⁻¹; in experiment [3] it was 0.000194 s⁻¹; in experiment [4], 0.000197 s⁻¹; in experiment [5], 0.000216 s⁻¹; in experiment [6] it was 0.000402 s⁻¹. Also, the koff in [7] came out at 0.000317 s⁻¹; in experiment [8], 0.00386 s⁻¹; in experiment [9], 0.00126 s⁻¹; in experiment [10] it was 0.000334 s⁻¹.

B3: S202 (scFv, V domains shown)
VH: DVQLVESGGGVVRPGESLRLSCAASGFTFSSYAMSWVRQAPGKGLEWLAGISAGGSDTYYIDSVKGRFTISRDNSKNSLYLQMNSLTAEDTAVYYCARETWNHLFDYWGLGTLVTVSS
VL: ALTQPASVSANPGETVKITCSGGGYYSTYYGWYQQRSPGSAPVTVIHSDDKRPSDIPSRFSGSASGSAATLTITGVRVEDEAVYYCAGYDGRTYLNTFGAGTTLTVL
On to B3, for which the koff in [1] worked out at 0.000113 s⁻¹; in [2], 3.75e-05 s⁻¹; in experiment [3], 0.00205 s⁻¹; in experiment [4], 4.44e-05 s⁻¹; in [5], 6.86e-05 s⁻¹; in experiment [6], 4.58e-05 s⁻¹. Also, the koff in experiment [7] was determined as 5.4e-05 s⁻¹; in experiment [8] it was 0.000509 s⁻¹; in [9], 0.00063 s⁻¹; in experiment [10], 0.00012 s⁻¹.

B4: S65 (scFv, V domains shown)
VH: DVQLVESGGGVVRPGESLRLSCAASGFTFSSYAMSWVRQAPGKGLEWLAGISAGGSDTYYIDSVKGRFTISRDNSKNSLYLQMNSLTAEDTAVYYCARETWNHLFDYWGLGTLVTVSS
VL: ALTQPASVSANPGETVKITCSGGDYYSTYYGWYQQKSPGSAPVTVIHSDDKRPSDIPSRFSGSASGSAATLTITGVRVEDEAVYFCGAYDGRTYINTFGAGTTLTVL
notes: also called clone 65
In the case of B4, the dissociation rate constant (koff) in [1] came to 0.000188 s⁻¹; in [2] it was 0.000145 s⁻¹; in [3], 0.000154 s⁻¹; in [4] it was 0.000134 s⁻¹; in experiment [5], 0.000147 s⁻¹; in experiment [6], 0.000159 s⁻¹. Also, the koff in [7] was 0.000172 s⁻¹; in experiment [8], 0.000607 s⁻¹; in experiment [9] it was 0.000786 s⁻¹; in experiment [10], 0.00019 s⁻¹.

B5: S70 (scFv, V domains shown)
VH: DVQLVESGGGVVRPGESLRLSCAASGFTFSSYAMSWVRQAPGKGLEWLAGISAGGSDAYYIDSVKGRFTISRDNSKNSLYLQMNSLTAEDTAVYYCARETWNHLFDYWGLGTLVTVSS
VL: ALTQPASVSANPGETVKITCSGGDWYSTYYGWYQQKSPGSAPVTVIHSDDKRPSDIPSRFSGSASGSAATLTITGVRVEDEAVYYCAGYDGRTYINTFGAGTTLTVL
notes: also called clone 70
With B5, the koff in experiment [1] was 0.000296 s⁻¹; in experiment [2], 0.000225 s⁻¹; in experiment [3] it was 0.000225 s⁻¹; in [4], 0.000222 s⁻¹; in [5], 0.00026 s⁻¹; in experiment [6], 0.00027 s⁻¹. Also, the koff was 0.00029 s⁻¹ in [7], 0.000672 s⁻¹ in [8], 0.000987 s⁻¹ in [9] and 0.000245 s⁻¹ in experiment [10].

B6: S66 (scFv, V domains shown)
VH: DVQLVESGGGVVRPGESLRLSCAASGFTFSSYAMSWVRQAPGKGLEWLAGISAGGSDTYYIDSVKGRFTISRDNPKNSLYLQMSSLTAEDTAVYYCARETWNHLFDYWGLGTLVTVSS
VL: ALTQPASVSANPGETVKITCSGGDYYSTYYAWYQQKSPGSAPVTVIHSDDKRPSDIPSRFSGSASGSAATLIITGVRVEDEAVYYCGGYDGRTYINTFGAGTTLTVL
notes: also called clone 66; scFv-Fc form of AB66
In the case of B6, the koff in experiment [1] was found to be 0.00025 s⁻¹; in experiment [2], 0.000118 s⁻¹; in experiment [3] it was 0.000138 s⁻¹; in experiment [4], 0.000126 s⁻¹; in experiment [5] it was 0.00011 s⁻¹; in [6], 0.000127 s⁻¹. In addition, the koff in experiment [7] is 0.000206 s⁻¹; in experiment [8] it was 0.00049 s⁻¹; in [9] it was 0.00102 s⁻¹; in experiment [10], 0.000255 s⁻¹.

B7: S60 (scFv, V domains shown)
VH: DVQLVDSGGGVVRPGESLRLSCAASGFTFSSYAMSWVRQAPGKGLEWLAGISAGGSDTYYIDSVKGRFTISRDNSKNSLYLQMNSLTAEDTAVYYCARETWNHLFDYWGLGTLVTVSS
VL: ALTQPASVSANPGETVKITCSGGDYYSTYYGWYQQKSPGSAPVTVIHSDDKRPSDIPSRFSGSASGSAATLTITGVRVEDEAVYFCGAYDGRTYINTFGAGTTLTVL
notes: also called clone 60
On to B7, for which the koff in experiment [1] was determined as 0.000192 s⁻¹; in experiment [2] it was 0.00014 s⁻¹; in experiment [3] it was 0.000153 s⁻¹; in experiment [4] it was 0.0001 s⁻¹; in [5], 0.000145 s⁻¹; in experiment [6], 0.000221 s⁻¹. In addition, the koff in experiment [7] turned out to be 0.000186 s⁻¹; in experiment [8], 0.000726 s⁻¹; in experiment [9], 0.0015 s⁻¹; in experiment [10], 0.000175 s⁻¹.

B8: S69 (scFv, V domains shown)
VH: DLQLVESGGGVVRPGESLRLSCAASGFTFSSYAMSWVRQAPGKGLEWLAGISAGGSDTYYIDSVKGRFTISRDNSKNSLYLQMNSLTAEDTAVYYCARETWNHLFDYWGLGTLVTVSS
VL: ALTQPASVSANPGETVKIICSGGDYYSTYYGWYQQKSPGSAPVTVIHSDDKRPSDIPSRFSGSASGSAATLTITGVRVEDEAVYFCGAYDGRTYINTFGAGTTLTVL
notes: also called clone 69
As to B8, the dissociation rate constant (koff) worked out at 0.000255 s⁻¹ in experiment [1]; 0.000205 s⁻¹ in [2]; 0.000229 s⁻¹ in experiment [3]; 0.000199 s⁻¹ in experiment [4]; 0.000233 s⁻¹ in experiment [5]; 0.000246 s⁻¹ in [6]. Moreover, the koff in experiment [7] is 0.000267 s⁻¹; in experiment [8], 0.000709 s⁻¹; in experiment [9] it was 0.000765 s⁻¹; in experiment [10], 0.000216 s⁻¹.

B9: S71 (scFv, V domains shown)
VH: DVQLVESGGGVVRPGESLRLSCAASGFTFSSYAMSWVRQAPGKGLEWLAGISAGGSDTYYIDSVKGRFTISRDNSKNSLYLQMNSLTAEDTAVYYCARETWNHLFDYWGLGTLVTVSS
VL: ALTQPASVSANPGETVKITCSGGGYYSTYYGWYQQKSPGSAPVTVIHSDDKRPSDIPSRFSGSASGSAATLTITGVRVEDEAVYYCAGYDARTYINTFGAGTTLTVL
notes: also called clone 71
For the molecule B9, the koff in experiment [1] was determined as 0.000364 s⁻¹; in [2] it was 0.000335 s⁻¹; in experiment [3] it was 0.000388 s⁻¹; in experiment [4], 0.000316 s⁻¹; in [5], 0.000379 s⁻¹; in experiment [6] it was 0.000417 s⁻¹. Besides, the koff came to 0.000403 s⁻¹ in experiment [7], 0.00112 s⁻¹ in [8], 0.00341 s⁻¹ in experiment [9] and 0.000313 s⁻¹ in [10].

What is called koff is the rate constant with which the complex falls apart. Low readings indicate slow dissociation, high ones fast dissociation.

Source of the values: patent publication US20210363269A1 (ALX ONCOLOGY, published 2021).
